Columns and labels:
[1] = biological target: Desmoplakin, P15924
[2] = biological target: T1, Desmocollin 1, Q08554
T1 chain: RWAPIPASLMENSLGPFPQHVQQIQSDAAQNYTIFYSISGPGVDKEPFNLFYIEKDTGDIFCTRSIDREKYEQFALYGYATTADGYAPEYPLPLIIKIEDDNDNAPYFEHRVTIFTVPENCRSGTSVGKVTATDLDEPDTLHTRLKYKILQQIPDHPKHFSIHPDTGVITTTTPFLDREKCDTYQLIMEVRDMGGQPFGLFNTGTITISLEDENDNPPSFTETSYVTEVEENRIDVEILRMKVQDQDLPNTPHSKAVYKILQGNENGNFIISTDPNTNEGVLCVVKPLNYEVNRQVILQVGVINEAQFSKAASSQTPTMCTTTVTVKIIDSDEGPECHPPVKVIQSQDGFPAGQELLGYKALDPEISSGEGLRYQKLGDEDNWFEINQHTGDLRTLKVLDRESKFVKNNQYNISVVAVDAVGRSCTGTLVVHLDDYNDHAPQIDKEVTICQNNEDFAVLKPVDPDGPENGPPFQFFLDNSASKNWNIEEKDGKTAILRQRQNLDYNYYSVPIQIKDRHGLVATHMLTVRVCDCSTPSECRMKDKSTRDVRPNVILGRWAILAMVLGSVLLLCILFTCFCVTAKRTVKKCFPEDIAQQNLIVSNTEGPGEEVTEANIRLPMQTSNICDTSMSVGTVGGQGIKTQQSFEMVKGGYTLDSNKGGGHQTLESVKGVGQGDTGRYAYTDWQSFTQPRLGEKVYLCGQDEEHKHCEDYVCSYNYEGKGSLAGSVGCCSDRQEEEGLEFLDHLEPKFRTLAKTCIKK

[3] = biological target: T2, Corneodesmosin, Q15517
T2 chain: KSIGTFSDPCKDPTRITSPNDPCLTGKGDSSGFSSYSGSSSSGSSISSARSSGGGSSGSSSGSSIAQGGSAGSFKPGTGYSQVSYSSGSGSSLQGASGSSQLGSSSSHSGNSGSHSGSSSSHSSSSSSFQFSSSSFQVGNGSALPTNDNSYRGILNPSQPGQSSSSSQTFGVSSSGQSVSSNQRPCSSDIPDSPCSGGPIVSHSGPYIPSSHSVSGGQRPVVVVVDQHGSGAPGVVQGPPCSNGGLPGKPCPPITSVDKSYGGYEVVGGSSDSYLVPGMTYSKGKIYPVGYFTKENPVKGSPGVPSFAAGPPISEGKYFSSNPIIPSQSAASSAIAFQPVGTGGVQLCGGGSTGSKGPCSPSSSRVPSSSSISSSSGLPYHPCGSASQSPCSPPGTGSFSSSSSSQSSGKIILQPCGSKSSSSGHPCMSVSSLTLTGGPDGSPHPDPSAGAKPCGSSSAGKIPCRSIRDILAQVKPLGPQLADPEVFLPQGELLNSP

[4] = biological target: T3, Plakoglobin, P14923
T3 chain: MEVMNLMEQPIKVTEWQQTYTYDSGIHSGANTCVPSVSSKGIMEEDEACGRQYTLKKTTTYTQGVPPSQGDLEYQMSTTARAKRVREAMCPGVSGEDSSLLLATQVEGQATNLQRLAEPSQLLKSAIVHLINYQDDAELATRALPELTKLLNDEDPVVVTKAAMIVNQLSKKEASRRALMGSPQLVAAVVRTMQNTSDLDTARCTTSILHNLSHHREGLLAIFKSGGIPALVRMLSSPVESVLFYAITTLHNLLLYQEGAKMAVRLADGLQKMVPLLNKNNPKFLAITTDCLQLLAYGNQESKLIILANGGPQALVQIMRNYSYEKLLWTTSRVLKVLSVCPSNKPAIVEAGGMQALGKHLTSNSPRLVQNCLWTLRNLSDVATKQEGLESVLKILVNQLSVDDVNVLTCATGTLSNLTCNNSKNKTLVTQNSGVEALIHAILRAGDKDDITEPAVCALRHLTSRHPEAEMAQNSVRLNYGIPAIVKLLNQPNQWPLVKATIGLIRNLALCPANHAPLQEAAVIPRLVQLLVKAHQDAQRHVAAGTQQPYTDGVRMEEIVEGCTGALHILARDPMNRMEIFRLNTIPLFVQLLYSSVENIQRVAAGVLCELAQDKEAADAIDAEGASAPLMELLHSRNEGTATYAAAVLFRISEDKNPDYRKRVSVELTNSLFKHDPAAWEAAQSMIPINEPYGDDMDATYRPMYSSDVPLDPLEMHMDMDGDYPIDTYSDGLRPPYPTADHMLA

[5] = biological target: T4, Desmoglein, Q02413
T4 chain: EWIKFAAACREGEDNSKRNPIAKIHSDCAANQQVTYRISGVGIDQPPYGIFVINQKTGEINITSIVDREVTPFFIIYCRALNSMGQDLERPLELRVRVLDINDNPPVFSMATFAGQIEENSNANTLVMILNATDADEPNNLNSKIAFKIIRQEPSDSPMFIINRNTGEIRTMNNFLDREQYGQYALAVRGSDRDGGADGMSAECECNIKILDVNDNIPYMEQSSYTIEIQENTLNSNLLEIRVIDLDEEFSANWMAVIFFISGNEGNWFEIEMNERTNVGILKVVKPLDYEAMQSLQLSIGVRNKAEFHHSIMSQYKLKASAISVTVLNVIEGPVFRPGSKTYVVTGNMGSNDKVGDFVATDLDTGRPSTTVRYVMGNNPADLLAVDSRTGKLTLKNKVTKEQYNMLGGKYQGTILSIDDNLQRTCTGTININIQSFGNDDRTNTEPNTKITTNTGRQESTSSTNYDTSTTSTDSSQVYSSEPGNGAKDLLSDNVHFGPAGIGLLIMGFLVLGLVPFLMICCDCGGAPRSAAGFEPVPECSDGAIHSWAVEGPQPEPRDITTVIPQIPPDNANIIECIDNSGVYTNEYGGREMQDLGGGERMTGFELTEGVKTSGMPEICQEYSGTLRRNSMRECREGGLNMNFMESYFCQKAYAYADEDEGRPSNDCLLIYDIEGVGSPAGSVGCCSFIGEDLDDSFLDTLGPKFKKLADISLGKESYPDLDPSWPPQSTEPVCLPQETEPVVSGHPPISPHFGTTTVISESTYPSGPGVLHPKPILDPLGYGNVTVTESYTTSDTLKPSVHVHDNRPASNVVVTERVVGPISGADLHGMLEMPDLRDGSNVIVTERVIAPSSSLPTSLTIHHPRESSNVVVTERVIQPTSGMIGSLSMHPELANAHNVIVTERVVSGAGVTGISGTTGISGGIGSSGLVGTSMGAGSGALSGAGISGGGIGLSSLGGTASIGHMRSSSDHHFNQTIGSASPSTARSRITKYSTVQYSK

[6] = biological target: Envoplakin, Q92817
Sequence of Envoplakin, Q92817 (Q92817 whole entry): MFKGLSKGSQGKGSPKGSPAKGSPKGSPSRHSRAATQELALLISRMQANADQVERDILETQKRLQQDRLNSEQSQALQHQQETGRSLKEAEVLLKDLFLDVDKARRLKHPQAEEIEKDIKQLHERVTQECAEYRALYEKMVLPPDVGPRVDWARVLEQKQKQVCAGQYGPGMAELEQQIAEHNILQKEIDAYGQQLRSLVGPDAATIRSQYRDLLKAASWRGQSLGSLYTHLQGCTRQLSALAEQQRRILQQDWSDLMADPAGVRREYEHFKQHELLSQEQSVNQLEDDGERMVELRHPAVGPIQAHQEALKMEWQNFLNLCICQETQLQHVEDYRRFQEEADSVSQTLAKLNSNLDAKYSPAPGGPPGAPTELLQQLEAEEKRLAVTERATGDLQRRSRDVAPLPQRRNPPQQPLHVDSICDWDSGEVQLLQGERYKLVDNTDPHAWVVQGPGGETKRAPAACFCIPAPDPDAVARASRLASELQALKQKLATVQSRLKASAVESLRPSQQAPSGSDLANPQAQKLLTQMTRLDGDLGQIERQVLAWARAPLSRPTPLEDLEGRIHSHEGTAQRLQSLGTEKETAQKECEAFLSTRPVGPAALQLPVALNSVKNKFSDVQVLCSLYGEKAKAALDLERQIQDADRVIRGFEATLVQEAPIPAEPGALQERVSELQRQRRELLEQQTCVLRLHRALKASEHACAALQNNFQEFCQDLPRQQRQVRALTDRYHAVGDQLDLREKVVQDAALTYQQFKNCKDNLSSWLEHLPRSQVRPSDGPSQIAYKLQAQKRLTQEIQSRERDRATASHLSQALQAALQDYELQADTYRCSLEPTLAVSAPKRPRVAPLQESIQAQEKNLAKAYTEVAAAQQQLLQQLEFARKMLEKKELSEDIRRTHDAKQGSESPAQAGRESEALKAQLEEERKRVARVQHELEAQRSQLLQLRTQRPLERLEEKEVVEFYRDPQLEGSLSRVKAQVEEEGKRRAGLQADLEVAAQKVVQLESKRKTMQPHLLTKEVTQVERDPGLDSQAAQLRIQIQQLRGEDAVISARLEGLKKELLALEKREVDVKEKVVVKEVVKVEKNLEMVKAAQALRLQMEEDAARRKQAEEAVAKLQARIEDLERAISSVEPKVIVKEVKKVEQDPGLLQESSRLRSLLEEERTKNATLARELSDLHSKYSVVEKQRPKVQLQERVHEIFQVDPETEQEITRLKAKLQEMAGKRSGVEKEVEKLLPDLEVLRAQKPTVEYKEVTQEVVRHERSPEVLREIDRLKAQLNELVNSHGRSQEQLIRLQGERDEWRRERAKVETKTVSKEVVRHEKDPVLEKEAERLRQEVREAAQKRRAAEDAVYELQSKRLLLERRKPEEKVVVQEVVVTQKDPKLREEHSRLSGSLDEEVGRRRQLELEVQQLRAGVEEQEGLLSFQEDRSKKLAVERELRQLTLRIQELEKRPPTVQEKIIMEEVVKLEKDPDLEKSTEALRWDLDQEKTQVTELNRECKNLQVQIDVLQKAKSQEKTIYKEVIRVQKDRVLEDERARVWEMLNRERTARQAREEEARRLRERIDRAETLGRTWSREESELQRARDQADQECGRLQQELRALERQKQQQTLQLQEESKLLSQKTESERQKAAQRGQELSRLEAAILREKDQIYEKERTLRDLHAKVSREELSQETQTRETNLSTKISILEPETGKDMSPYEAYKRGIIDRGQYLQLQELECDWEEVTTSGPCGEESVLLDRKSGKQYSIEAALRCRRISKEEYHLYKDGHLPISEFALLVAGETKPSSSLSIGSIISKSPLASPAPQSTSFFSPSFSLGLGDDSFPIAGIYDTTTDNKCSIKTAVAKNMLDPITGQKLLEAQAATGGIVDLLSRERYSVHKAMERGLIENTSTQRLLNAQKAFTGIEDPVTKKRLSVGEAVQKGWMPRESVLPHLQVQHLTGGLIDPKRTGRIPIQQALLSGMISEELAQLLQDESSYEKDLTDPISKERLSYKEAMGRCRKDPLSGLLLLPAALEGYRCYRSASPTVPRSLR

Sequence of Desmoplakin, P15924 (P15924 whole entry): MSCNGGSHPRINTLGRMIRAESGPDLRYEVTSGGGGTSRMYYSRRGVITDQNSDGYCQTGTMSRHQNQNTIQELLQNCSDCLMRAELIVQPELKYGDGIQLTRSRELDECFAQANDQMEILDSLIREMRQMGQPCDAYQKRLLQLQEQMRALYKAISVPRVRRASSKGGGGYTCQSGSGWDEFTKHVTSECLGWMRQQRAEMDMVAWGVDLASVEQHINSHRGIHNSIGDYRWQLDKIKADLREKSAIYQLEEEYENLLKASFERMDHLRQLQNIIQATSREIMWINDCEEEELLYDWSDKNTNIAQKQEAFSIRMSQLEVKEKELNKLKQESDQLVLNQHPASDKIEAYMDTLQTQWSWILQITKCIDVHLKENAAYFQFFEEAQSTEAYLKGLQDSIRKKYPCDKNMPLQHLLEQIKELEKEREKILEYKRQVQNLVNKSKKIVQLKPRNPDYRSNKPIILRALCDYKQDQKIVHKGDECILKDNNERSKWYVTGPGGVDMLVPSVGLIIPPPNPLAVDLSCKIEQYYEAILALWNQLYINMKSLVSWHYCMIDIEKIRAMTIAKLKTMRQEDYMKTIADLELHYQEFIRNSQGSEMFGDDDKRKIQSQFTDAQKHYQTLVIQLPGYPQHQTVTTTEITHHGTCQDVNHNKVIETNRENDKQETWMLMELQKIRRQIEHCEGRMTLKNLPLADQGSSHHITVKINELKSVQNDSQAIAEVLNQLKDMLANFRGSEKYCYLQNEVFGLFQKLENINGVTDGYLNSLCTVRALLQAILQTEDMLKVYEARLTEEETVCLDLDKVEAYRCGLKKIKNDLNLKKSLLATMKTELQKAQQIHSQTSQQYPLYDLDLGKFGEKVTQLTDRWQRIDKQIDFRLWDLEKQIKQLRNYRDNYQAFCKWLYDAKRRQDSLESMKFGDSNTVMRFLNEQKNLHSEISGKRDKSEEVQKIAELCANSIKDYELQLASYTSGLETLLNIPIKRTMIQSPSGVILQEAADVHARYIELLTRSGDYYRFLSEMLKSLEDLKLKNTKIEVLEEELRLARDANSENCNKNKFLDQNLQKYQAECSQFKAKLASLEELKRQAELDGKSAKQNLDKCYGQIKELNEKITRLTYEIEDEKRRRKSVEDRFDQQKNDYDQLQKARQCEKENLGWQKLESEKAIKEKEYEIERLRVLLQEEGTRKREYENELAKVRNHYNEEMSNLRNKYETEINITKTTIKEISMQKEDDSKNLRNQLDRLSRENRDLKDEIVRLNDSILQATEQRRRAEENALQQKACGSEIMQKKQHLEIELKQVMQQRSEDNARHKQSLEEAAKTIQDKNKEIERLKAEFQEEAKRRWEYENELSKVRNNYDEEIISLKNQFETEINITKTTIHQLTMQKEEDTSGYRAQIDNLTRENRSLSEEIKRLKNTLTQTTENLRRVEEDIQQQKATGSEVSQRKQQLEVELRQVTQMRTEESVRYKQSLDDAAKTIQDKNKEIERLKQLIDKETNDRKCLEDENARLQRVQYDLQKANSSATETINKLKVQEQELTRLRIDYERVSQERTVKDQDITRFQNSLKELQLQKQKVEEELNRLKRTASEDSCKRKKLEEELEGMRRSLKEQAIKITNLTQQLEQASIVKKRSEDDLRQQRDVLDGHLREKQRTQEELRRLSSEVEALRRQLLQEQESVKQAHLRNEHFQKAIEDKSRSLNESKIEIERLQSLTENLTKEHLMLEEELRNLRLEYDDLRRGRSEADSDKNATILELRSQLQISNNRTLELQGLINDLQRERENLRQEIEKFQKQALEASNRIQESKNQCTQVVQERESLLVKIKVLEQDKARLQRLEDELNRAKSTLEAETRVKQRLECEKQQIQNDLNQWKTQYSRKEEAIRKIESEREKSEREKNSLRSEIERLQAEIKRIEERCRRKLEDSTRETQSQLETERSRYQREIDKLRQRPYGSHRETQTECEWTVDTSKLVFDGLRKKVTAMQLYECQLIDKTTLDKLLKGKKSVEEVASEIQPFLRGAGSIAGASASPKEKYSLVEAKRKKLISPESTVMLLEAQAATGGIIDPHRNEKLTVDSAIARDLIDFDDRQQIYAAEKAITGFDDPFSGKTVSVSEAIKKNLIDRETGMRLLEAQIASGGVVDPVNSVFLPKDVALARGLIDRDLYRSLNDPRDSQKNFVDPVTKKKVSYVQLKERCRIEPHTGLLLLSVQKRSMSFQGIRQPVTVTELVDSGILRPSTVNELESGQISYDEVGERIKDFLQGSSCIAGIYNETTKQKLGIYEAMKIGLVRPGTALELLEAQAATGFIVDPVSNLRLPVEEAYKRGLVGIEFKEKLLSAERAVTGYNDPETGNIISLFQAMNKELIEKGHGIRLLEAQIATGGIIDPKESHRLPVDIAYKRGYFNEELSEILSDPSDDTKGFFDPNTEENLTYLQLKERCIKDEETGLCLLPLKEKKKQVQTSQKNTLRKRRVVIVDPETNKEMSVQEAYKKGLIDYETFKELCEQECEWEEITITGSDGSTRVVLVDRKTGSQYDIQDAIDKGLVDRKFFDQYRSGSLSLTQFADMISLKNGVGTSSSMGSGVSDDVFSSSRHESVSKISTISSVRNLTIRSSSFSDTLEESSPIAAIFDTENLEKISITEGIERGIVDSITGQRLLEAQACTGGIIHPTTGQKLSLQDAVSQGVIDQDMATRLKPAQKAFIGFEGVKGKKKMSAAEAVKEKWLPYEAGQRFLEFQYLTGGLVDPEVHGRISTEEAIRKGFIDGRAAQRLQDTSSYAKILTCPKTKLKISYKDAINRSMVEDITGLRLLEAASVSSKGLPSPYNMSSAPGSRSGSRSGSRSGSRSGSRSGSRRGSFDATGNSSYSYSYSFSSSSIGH

B1: recombinant Stratum Corneum Chymotryptic Enzyme (SCCE), active form obtained from recombinant ProSCCE with agarose-bound trypsin (protein)
chain: EEAQGDKIIDGAPCARGSHPWQVALLSGNQLHCGGVLVNERWVLTAAHCKMNEYTVHLGSDTLGDRRAQRIKASKSFRHPGYSTQTHVNDLMLVKLNSQARLSSMVKKVRLPSRCEPPGTTCTVSGWGTTTSPDVTFPSDLMCVDVKLISPQDCTKVYKDLLENSMLCAGIPDSKKNACNGDSGGPLVCRGTLQGLVSWGTFPCGQPNDPGVYTQVCKFTKWINDTMKKHR
proteolysis (immunoblot of human epidermis extract incubated with active SCCE) [1]: Desmoplakin is found to be proteolysed by SCCE.
proteolysis (immunoblot of human epidermis extract incubated with active SCCE) [2]: Desmocollin is found to be proteolysed by SCCE.
proteolysis (immunoblot of human epidermis extract incubated with active SCCE) [3]: Corneodesmosin is found to be proteolysed by recombinant SCCE.
proteolysis (immunoblot of human epidermis extract incubated with active SCCE) [4]: Plakoglobin is found to be proteolysed by recombinant SCCE.
proteolysis (immunoblot of human epidermis extract incubated with active SCCE) [5]: Desmoglein is found to be proteolysed by SCCE.
proteolysis (immunoblot of human epidermis extract incubated with active SCCE) [6]: Envoplakin is found to be proteolysed by SCCE.

Source: patent publication US20080292615
